Assay results published in article PMC6155126 (Nature Communications, 2018).

Molecular target: FLAG-Pol λ-WT (human, UniProt Q9UGP5 1-575)
Assay: cell-based or functional assay

Pol λ-dependent gap filling synthesis on a 5nt-gapped dsDNA (33-mer), stimulation by added protein over a concentration series: ≤ 10 fold
B1: FLAG-XRCC4 (natural protein, human, UniProt Q13426 1-336, looked up)
chain: MERKISRIHLVSEPSITHFLQVSWEKTLESGFVITLTDGHSAWTGTVSESEISQEADDMAMEKGKYVGELRKALLSGAGPADVYTFNFSKESCYFFFEKNLKDVSFRLGSFNLEKVENPAEVIRELICYCLDTIAENQAKNEHLQKENERLLRDWNDVQGRFEKCVSAKEALETDLYKRFILVLNEKKTKIRSLHNKLLNAAQEREKDIKQEGETAICSEMTADRDPVYDESTDEESENQTDLSGLASAAVSKDDSIISSLDVTDIAPSRKRRQRMQRNLGTEPKMAPQENQLQEKENSRPDSSLPETSKKEHISAENMSLETLRNSSPEDLFDEI
